Data on 1 molecule can be found in article PMC10247153, “Chromatin Sensing by the Auxiliary Domains of KDM5C Regulates Its Demethylase Activity and Is Disrupted by X-linked Intellectual Disability Mutations”.

The target in this data set is T1, KDM5C ARID (Homo sapiens, UniProt P41229 73-188).
T1 sequence: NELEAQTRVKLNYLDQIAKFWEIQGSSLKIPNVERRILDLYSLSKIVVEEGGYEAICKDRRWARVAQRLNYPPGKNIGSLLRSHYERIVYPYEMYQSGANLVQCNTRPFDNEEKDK
Nature of the data set: EMSA; apparent Kd; EMSA: 50 mM HEPES pH 7.5, 50 mM KCl, 1 mM BME, 0.01% Tween-20, 0.01% BSA, 5% sucrose, 1 h on ice; 100 nM nucleosome or 147 bp DNA, 500 nM 20 bp DNA; gel at 4 C. Particulars: protein: recombinant; tags: 6xHis-SUMO cleaved.

B1: 5' flanking (linker) DNA 20 bp (dsDNA)
DNA 1: GGACCCTATACGCGGCCGCC
DNA 2: GGCGGCCGCGTATAGGGTCC
On to B1, for which the Kd stood at 9.9 ± 0.4 µM.
